From patent publication US20030091584A1 (AstraZeneca / MedImmune, published 2003)
Numbering of substitutions follows the chain as printed. Where “and” joins values, the source holds several entries; their conditions need not be identical. Equal values may be shown once.

T1: RSV F glycoprotein (NUF4) (respiratory syncytial virus)
T1 chain 1: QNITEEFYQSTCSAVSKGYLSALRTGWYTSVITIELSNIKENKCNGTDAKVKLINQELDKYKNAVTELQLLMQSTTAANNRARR
T1 chain 2: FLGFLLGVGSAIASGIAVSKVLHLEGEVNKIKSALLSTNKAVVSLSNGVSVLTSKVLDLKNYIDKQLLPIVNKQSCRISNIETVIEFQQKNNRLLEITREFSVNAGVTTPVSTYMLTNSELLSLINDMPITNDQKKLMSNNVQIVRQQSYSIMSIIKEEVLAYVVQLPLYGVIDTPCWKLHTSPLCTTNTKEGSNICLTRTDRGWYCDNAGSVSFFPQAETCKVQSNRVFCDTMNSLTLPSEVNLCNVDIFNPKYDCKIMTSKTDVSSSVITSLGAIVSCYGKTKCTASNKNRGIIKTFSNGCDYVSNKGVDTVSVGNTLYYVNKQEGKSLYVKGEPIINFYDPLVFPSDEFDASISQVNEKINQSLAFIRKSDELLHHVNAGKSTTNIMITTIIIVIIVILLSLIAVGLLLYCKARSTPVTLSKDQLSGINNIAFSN

B1: A1e9 (monoclonal antibody) (antibody, V domains shown)
VH: QVTLRESGPALVKPTQTLTLTCTFSGFSLSTPGMSVGWIRQPPGKALEWLADIWWDGKKHYNPSLKDRLTISKDTSKNQVVLKVTNMDPADTATYYCARDMIFNWYFDVWGQGTTVTVSS
VL: DIQMTQSPSTLSASVGDRVTITCSLSSRVGYMHWYQQKPGKAPKLLIYDTFKLSSGVPSRFSGSGSGTEFTLTISSLQPDDFATYYCFQGSGYPFTFGGGTKVEIK
notes: mAb with framework and constant regions of SYNAGIS; also called Ale9
B2: P11d4 (monoclonal antibody) (antibody, V domains shown)
VH: B1 VH
VL: B1 VL with L25P, F51M, K52R, S54A
notes: mAb with framework and constant regions of SYNAGIS
B3: P12f2 (Fab fragment) (Fab, V domains shown)
VH: B1 VH with G57D, W105F, Q112A
VL: B1 VL with K52Y
notes: Fab
B4: P12f2 (monoclonal antibody) (antibody, V domains shown)
VH: B1 VH with G57D, W105F, Q112A
VL: B1 VL with K52Y
notes: mAb with framework and constant regions of SYNAGIS; also called Pf12
B5: A8c7 (monoclonal antibody) (antibody, V domains shown)
VH: B1 VH with P32A, G57D, H60S
VL: B1 VL with L25A, F51R, K52Y, L53Q, V103L
notes: as for B2
B6: P12f4 (Fab fragment) (Fab, V domains shown)
VH: B1 VH with W105F
VL: B1 VL with F51R, K52G, S54P
notes: Fab
B7: A12a6 (monoclonal antibody) (antibody, V domains shown)
VH: B1 VH with P32A, H60D, W105F
VL: B1 VL with L25A
notes: as for B2
B8: P12f4 (monoclonal antibody) (antibody, V domains shown)
VH: B1 VH with W105F
VL: B1 VL with F51R, K52G, S54P
notes: as for B2
B9: P11d4 (Fab fragment) (Fab, V domains shown)
VH: B1 VH
VL: B1 VL with L25P, F51M, K52R, S54A
notes: Fab
B10: A1e9 (Fab fragment) (Fab, V domains shown)
VH: B1 VH
VL: B1 VL
notes: Fab; also called *Ale9
B11: A17d4 (Fab fragment) (Fab, V domains shown)
VH: B1 VH with P32A, H60S, W105F
VL: B1 VL with S24L, L25P, F51M, K52Y, L53Q, S54A, G90F, V103L
B12: A12a6 (Fab fragment) (Fab, V domains shown)
VH: B1 VH with P32A, H60D, W105F
VL: B1 VL with L25A
notes: Fab
B13: A8c7 (Fab fragment) (Fab, V domains shown)
VH: B1 VH with P32A, G57D, H60S
VL: B1 VL with L25A, F51R, K52Y, L53Q, V103L
B14: A13a11 (Fab fragment) (Fab, V domains shown)
VH: B1 VH with P32A, G57D, Q112A
VL: B1 VL with L25A, R28S, F51Y, K52R, L53H, S54A, V103L
notes: Fab
B15: A4B4 (Fab fragment) (Fab, V domains shown)
VH: B1 VH with P32A, G57D, W105F
VL: B1 VL with L25A, K52F, S54D, V103L
B16: A1h5 (Fab fragment) (Fab, V domains shown)
VH: B1 VH
VL: B1 VL with R28S, K52F, L53H, S54R, V103L
B17: 1X-493L1FR (Fab fragment) (Fab, V domains shown)
VH: B1 VH with P32S, G57D, H60D, D67S, D100S, F103T, Q112A
VL: B1 VL with L25A, R28S, F51S, S54A, V103L
B18: H3-3F4 (Fab fragment) (Fab, V domains shown)
VH: B1 VH with P32A, G57D, H60D, D67S, Q112A
VL: B1 VL with L25A, R28S, S54A, V103L
B19: M3H9 (Fab fragment) (Fab, V domains shown)
VH: B1 VH with P32A, G57D, H60D, D67S, Q112A
VL: B1 VL with L25A, R28S, F51Y, L53Q, S54T, V103L
B20: Y10H6 (Fab fragment) (Fab, V domains shown)
VH: B1 VH with P32A, G57D, H60D, D67S, Q112A
VL: B1 VL with L25A, R28S, F51R, K52Y, V103L
B21: DG (Fab fragment) (Fab, V domains shown)
VH: B1 VH with P32A, G57D, H60D, D67S, F103T, W105F, Q112A
VL: B1 VL with L25A, R28S, S54A, V103L
B22: 6H8 (Fab fragment) (Fab, V domains shown)
VH: B1 VH with P32A, G57D, H60D, D67S, F103T, W105F, Q112A
VL: B1 VL with L25A, R28S, S54T, V103L

Target: T2, F protein of wild type RSV A/Long (respiratory syncytial virus strain …, UniProt P12568 26-574)
Assay: cell-based or functional assay

Row | Binder | Fold Difference (Control IC50) [fold] | Fold Difference (Curve IC50) [fold] | Mean IC50 (Control), RSV microneutralization [mg/L] | Mean IC50 (Curve), RSV microneutralization [mg/L]
1 | B1 | 8 | 7 | 0.0645 | 0.0625
2 | B2 | 19 | 21 | 0.0289 | 0.0217
3 | B3 | 16 | 11 | 0.0326 | 0.0407
4 | B4 | 24 | 20 | 0.0223 | 0.0231
5 | B5 | 14 | 13 | 0.0383 | 0.0337
6 | B6 | 15 | 10 | 0.0351 | 0.0464
7 | B7 | 15 | 13 | 0.0354 | 0.0357
8 | B8 | 23 | 19 | 0.0235 | 0.0242
9 | B9 |  |  | > 1 | > 1
10 | B10 | 4 | 3 | 0.125 | 0.157
11 | B11 | 31 | 25 | 0.0171 | 0.0179
12 | B12 | 17 | 16 | 0.031 | 0.0287
13 | B13 | 34 | 3 | 0.157 | 0.177
14 | B14 | 5 | 4 | 0.102 | 0.12
15 | B15 | 13 | 11 | 0.0411 | 0.0414
16 | B16 | 3 | 2 | 0.176 | 0.194

Target: RSV F protein (immobilized on the BIAcore sensor chip) (respiratory syncytial virus)
Assay: BIAcore, immobilized F protein;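 note: fab fragments as analytes binding F protein coupled to the chip via EDC/NHS chemistry, with blank surface signal subtracted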

Row | Binder | koff | kon
17 | B3 | 0.000282 s⁻¹ | 663000 M⁻¹ s⁻¹
18 | B6 | 0.000299 s⁻¹ | 527000 M⁻¹ s⁻¹
19 | B9 | 0.000717 s⁻¹ | 570000 M⁻¹ s⁻¹ and 572000 M⁻¹ s⁻¹
20 | B10 | 0.000453 s⁻¹ | 790000 M⁻¹ s⁻¹
21 | B12 | 0.00023 s⁻¹ | 743000 M⁻¹ s⁻¹
22 | B14 | 0.00025 s⁻¹ | 735000 M⁻¹ s⁻¹
23 | B17 | 0.00065 s⁻¹ | 185000 M⁻¹ s⁻¹
24 | B18 | 0.000445 s⁻¹ and 0.000402 s⁻¹ | 
25 | B19 | 0.000338 s⁻¹ | 605000 M⁻¹ s⁻¹
26 | B20 | 0.000462 s⁻¹ | 757000 M⁻¹ s⁻¹
27 | B21 | 0.000167 s⁻¹ and 0.000444 s⁻¹ | 
28 | B22 | 0.000178 s⁻¹ and 0.000473 s⁻¹ | 314000 M⁻¹ s⁻¹ and 444000 M⁻¹ s⁻¹

Target: T1, RSV F glycoprotein (NUF4)
Assay: BIAcore, mAb vs NUF4 (1:1)

Row | Binder | Kd [nM] | koff [s⁻¹] | kon [M⁻¹ s⁻¹] | number in parentheses after KD (fold against SYNAGIS = 1) [fold]
29 | B1 | 0.69 | 0.000584 | 843000 | 13
30 | B2 | 0.85 | 0.000766 | 904000 | 10
31 | B4 | 0.33 | 0.000178 | 541000 | 26
32 | B5 | 0.65 | 0.000535 | 825000 | 13
33 | B7 | 0.73 | 0.000291 | 400000 | 12
34 | B8 | 0.24 | 0.000229 | 943000 | 36

Target: T2, F protein of wild type RSV A/Long
Assay: cell-based or functional assay
Remark: another data set of the same source

Row | Binder | EC50 (nM), in vitro microneutralization of RSV Long [nM]
35 | B3 | 0.65
36 | B6 | 0.7
37 | B9 | > 20
38 | B10 | 2.5
39 | B12 | 0.62
40 | B14 | 2.04

Target: T1, RSV F glycoprotein (NUF4)
Assay: BIAcore, mAb vs NUF4 (2:1)

Row | Binder | Kd [nM] | koff [s⁻¹] | kon [M⁻¹ s⁻¹] | number in parentheses after KD (fold against SYNAGIS = 1) [fold]
41 | B1 | 4.22 | 0.00139 | 329000 | 74
42 | B2 | 8.55 | 0.00313 | 366000 | 36
43 | B4 | 0.84 | 0.000236 | 282000 | 371
44 | B5 | 2.65 | 0.00114 | 430000 | 118
45 | B7 | 1.87 | 0.000408 | 218000 | 167
46 | B8 | 2.33 | 0.000636 | 273000 | 134
